From paper PMC9576766, “The human TRPA1 intrinsic cold and heat sensitivity involves separate channel structures beyond the N-ARD domain” (Nature Communications, 2022)

Target: the molecule itself
Test: SEC; gel filtration on a Sephadex 100 (G-100) size exclusion column; 20 mM HEPES, 10% glycerol, 150 mM NaCl, pH 7.8, 0.014% Fos-Choline-14; immunoglobulin of 150 kDa as reference for the tetrameric fraction

B1: Δ1–854 hTRPA1 (human TRPA1 without its N-terminal ankyrin repeat domain and transmembrane segments S1–S4) (domain or fragment, UniProt O75762 855-1119, looked up)
chain: NCGIFIVMLEVILKTLLRSTVVFIFLLLAFGLSFYILLNLQDPFSSPLLSIIQTFSMMLGDINYRESFLEPYLRNELAHPVLSFAQLVSFTIFVPIVLMNLLIGLAVGDIAEVQKHASLKRIAMQVELHTSLEKKLPLWFLRKVDQKSTIVYPNKPRSGGMLFHIFCFLFCTGEIRQEIPNADKSLEMEILKQKYRLKDLTFLLEKQHELIKLIIQKMEIISETEDDDSHCSFQDRFKKEQMEQRNSRWNTVLRAVKAKTHHLEP
notes: keeps most of the S4-S5 linker (N855, C856), S5-S6 and the C-terminal domain; gene optimised for expression in insect cells; the vector pTriEx-3 is named; The tetramer is by gel filtration; a smaller monomeric fraction eluted as well; also called S1–S4 transmembrane domain deleted hTRPA1
- stoichiometry N: 4
